Test results taken from article PMC4316771.

Key:
[1] = biological target: FcRn-p3 (human FcRn fused to the amino terminal part of the bacteriophage p3 protein and the CVDE protein) (human) (UniProt P55899); assay: ELISA; phage-ELISA at pH 6.0: FcRn-p3 coated on Maxisorp plates (0.25 μg/well); phage-Fc supernatants diluted 1/2 and 1/4 in P6 (100 mM sodium phosphate, 50 mM NaCl, pH 6.0) with 5% skimmed milk and 0.1% Tween-20; 2 h at 37°C; bound phages detected with HRP anti-M13 antibody; results as ratios of signals
[2] = biological target: soluble human FcRn (human) (UniProt P55899); assay: SPR; BIAcore X100, CM5 chip, recombinant human FcRn immobilised; IgG 1-200 nM flowed at 10 μl/min, 25°C, 50 mM sodium phosphate pH 6.0, 150 mM NaCl, 0.02% NaN3, 0.01% Tween-20; steady-state affinity model
[3] = biological target: FcRn-p3 (human FcRn fused to the amino terminal part of the bacteriophage p3 protein and the CVDE protein) (human) (UniProt P55899); assay: ELISA; FcRn-p3 (0.1 μg/well) coated on Maxisorp plates in P6 (pH 6.0); IgG in HEK293-F supernatants aggregated with HRP F(ab')2 goat anti-human F(ab')2, diluted in P6 to 0.0375 μg/ml, 1 h at 30°C; results as ratio variant/WT
[4] = biological target: human FcγRIIA-R131 (human); assay: ELISA; C1q (0.5 μg/well) or FcγRIIIA-V158 (0.1 μg/well) coated on Maxisorp plates, FcγRIIA-R131 (0.1 μg/well) or FcγRIIB (0.4 μg/well) on nickel chelate plates; IgG in HEK293-F supernatants aggregated with HRP F(ab')2 goat anti-human F(ab')2, 0.5 μg/ml (0.25 μg/ml for FcγRIIIA-V158) in PBS, 1 h at 30°C; results as ratio variant/WT
[5] = biological target: human FcγRIIB (human) (UniProt P31994); assay: as above
[6] = biological target: human FcγRIIIA-V158 (human); assay: as above
[7] = biological target: human complement C1q; assay: as above

Chain of UniProt P31994 (P31994 43-217): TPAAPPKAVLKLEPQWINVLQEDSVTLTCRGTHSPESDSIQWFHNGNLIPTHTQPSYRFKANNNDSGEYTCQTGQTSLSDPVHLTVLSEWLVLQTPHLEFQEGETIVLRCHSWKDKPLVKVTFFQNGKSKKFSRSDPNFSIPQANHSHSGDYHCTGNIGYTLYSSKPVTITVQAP

| Substance | phage-ELISA ratio/Fc-WT [1] | Kd [2] [nM] | ELISA ratio variant/WT [3] | ELISA ratio variant/WT [4] | ELISA ratio variant/WT [5] | ELISA ratio variant/WT [6] | ELISA ratio variant/WT [7] |
| --- | --- | --- | --- | --- | --- | --- | --- |
| Fc variant Fc-QL (phage-displayed Fc 226-447) (domain or fragment) | 3.2 | – | – | – | – | – | – |
| Fc variant Fc-YTE (phage-displayed Fc 226-447) (domain or fragment) | 3.5 | – | – | – | – | – | – |
| anti-CD20 IgG1 IgG-WT (produced in YB2/0 cells) (antibody) | – | 101 | – | – | – | – | – |
| anti-CD20 IgG1 variant IgG-LS (produced in HEK293-F cells) (antibody) | – | – | 4.46 | 2.52 | 0.97 | 1.3 | 2.39 |
| anti-CD20 IgG1 variant IgG-QL (produced in HEK293-F cells) (antibody) | – | – | 2.39 | 0.99 | 0.95 | 0.59 | 2.47 |
| anti-CD20 IgG1 variant IgG-YTE (produced in HEK293-F cells) (antibody) | – | – | 2.06 | 0.27 | 0.42 | 0.27 | 0.64 |
